# B1: fibrillarin (natural protein, rat (endogenous in PC12), UniProt P22509 1-327, looked up)
# chain: MKPGFSPRGGGFGGRGGFGDRGGRGGGRGGRGGFGGGRGGFGGGGRGRGGGGGGFRGRGGGGGRGGGFQSGGGRGRGGGRGGKRGNQSGKNVMVEPHRHEGVFICRGKEDALVTKNLVPGESVYGEKRVSISEGDDKIEYRAWNPFRSKLAAAILGGVDQIHIKPGAKVLYLGAASGTTVSHVSDIVGPDGLVYAVEFSHRSGRDLINLAKKRTNIIPVIEDARHPHKYRMLIAMVDVIFADVAQPDQTRIVALNAHTFLRNGGHFVISIKANCIDSTASAEAVFASEVKKMQQENMKPQEQLTLEPYERDHAVVVGVYRPPPKAKN
# notes: fibrillarin, endogenous in PC12 cells, detected with a mouse monoclonal anti-fibrillarin antibody; source: endogenous, PC12 cells (lysate or fixed cells)
# B2: UBF (upstream binding factor) (natural protein, rat (endogenous in PC12), UniProt P25977 1-764, looked up)
# chain: MNGEADCPTDLEMAAPKGQDRWSQEDMLTLLECMKNNLPSNDSSKFKTTESHMDWEKVAFKDFSGDMCKLKWVEISNEVRKFRTLTELILDAQEHVKNPYKGKKLKKHPDFPKKPLTPYFRFFMEKRAKYAKLHPEMSNLDLTKILSKKYKELPEKKKMKYIQDFQREKQEFERNLARFREDHPDLIQNAKKSDIPEKPKTPQQLWYTHEKKVYLKVRPDATTKEVKDSLGKQWSQLSDKKRLKWIHKALEQRKEYEEIMRDYIQKHPELNISEEGITKSTLTKAERQLKDKFDGRPTKPPPNSYSLYCAELMANMKDVPSTERMVLCSQQWKLLSQKEKDAYHKKCDQKKKDYEVELLRFLESLPEEEQQRVLGEEKMLNINKKQTTSPASKKPSQEGGKGGSEKPKRPVSAMFIFSEEKRRQLQEERPELSESELTRLLARMWNDLSEKKKAKYKAREAALKAQSERKPGGEREDRGKLPESPKRAEEIWQQSVIGDYLARFKNDRVKALKAMEMTWNNMEKKEKLMWIKKAAEDQKRYERELSEMRAPPAATNSSKKMKFQGEPKKPPMNGYQKFSQELLSNGELNHLPLKERMVEIGSRWQRISQSQKEHYKKLAEEQQRQYKVHLDLWVKSLSPQDRAAYKEYISNKRKNMTKLRGPNPKSSRTTLQSKSESEEDDDEEDDDDDDEEEEEDDENGDSSEDGGDSSESSSEDESEDGDENEDDDDDEDDDEDDDEDEDNESEGSSSSSSSSGDSSDSDSN
# notes: source: endogenous, PC12 cells (lysate or fixed cells)
# B3: B23 (also termed nucleophosmin, NPM1) (natural protein, rat (endogenous in PC12), UniProt P13084 1-292, looked up)
# chain: MEDSMDMDMSPLRPQNYLFGCELKADKDYHFKVDNDENEHQLSLRTVSLGAGAKDELHIVEAEAMNYEGSPIKVTLATLKMSVQPTVSLGGFEITPPVVLRLKCGSGPVHISGQHLVAVEEDAESEDEDEEDVKLLGMSGKRSAPGGGNKVPQKKVKLDEDDDEDDEDDEDDEDDDDDDFDEEETEEKVPVKKSVRDTPAKNAQKSNQNGKDLKPSTPRSKGQESFKKQEKTPKTPKGPSSVEDIKAKMQASIEKGGSLPKVEAKFINYVKNCFRMTDQEAIQDLWQWRKSL
# notes: B23 / nucleophosmin, endogenous in PC12 cells, detected with a mouse monoclonal anti-B23 antibody; source: endogenous, PC12 cells (lysate or fixed cells)
# Target: T1, myosin VI (MVI), endogenous in PC12 cells (rat (endogenous in PC12), UniProt D4A5I9 1-1285)
# T1 construct: myosin VI heavy chain, endogenous in PC12 cells; also called unconventional myosin VI; source: endogenous, PC12 cells (lysate or fixed cells)
# T1 sequence (D4A5I9 entry or part of it): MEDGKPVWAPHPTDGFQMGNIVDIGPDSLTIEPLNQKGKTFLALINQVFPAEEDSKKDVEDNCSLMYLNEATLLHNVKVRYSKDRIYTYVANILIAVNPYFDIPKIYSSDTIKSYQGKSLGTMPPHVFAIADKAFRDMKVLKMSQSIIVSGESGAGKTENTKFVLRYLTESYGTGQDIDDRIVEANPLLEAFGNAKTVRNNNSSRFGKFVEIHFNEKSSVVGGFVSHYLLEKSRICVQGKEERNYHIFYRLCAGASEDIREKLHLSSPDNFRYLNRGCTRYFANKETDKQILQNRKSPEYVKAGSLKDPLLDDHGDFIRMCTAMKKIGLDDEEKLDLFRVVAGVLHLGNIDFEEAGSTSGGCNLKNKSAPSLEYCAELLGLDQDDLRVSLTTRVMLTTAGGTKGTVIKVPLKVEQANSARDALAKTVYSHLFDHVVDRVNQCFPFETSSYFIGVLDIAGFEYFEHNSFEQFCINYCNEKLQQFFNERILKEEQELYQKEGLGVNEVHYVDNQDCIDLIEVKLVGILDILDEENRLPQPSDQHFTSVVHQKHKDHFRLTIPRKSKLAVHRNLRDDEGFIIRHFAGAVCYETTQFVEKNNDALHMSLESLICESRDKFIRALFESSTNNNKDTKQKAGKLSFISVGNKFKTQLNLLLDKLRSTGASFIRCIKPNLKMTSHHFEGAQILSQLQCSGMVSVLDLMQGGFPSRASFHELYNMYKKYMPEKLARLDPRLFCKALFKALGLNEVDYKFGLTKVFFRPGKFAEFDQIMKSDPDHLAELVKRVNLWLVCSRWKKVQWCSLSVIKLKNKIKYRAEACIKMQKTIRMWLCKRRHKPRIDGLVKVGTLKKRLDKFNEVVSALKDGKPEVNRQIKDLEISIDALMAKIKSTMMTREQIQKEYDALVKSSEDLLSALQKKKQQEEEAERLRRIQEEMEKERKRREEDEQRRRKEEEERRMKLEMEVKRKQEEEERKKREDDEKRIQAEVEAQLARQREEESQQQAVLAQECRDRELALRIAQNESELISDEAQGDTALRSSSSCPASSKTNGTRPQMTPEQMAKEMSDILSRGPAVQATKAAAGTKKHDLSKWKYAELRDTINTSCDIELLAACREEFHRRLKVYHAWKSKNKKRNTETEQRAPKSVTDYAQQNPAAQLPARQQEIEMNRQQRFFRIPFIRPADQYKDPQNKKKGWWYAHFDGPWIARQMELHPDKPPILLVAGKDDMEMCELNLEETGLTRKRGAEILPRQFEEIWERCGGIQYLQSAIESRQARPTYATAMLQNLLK
# Test: proximity ligation; Duolink in situ PLA on fixed PC12 cells, rabbit anti-MVI with mouse monoclonal antibodies to the partner; foci counted per nucleus
# Conditions: partners not purified
row,fraction of PLA foci-positive nuclei,Binder
1,~65%,B1
2,~36%,B2
3,~57%,B3

# — paper PMC11106421, “Myosin VI in the nucleolus of neurosecretory PC12 cells: its involvement in the maintenance of nucleolar structure and ribosome organization” (Frontiers in Physiology, 2024)
